# Laboratory results as given in patent US20150119475.
# Biological target: Snail protein (SNAI1/Snail, expressed as GST fusion in E. coli, GST moiety cleaved with thrombin), O95863
# Sequence (O95863 whole entry, the tested form may be a part): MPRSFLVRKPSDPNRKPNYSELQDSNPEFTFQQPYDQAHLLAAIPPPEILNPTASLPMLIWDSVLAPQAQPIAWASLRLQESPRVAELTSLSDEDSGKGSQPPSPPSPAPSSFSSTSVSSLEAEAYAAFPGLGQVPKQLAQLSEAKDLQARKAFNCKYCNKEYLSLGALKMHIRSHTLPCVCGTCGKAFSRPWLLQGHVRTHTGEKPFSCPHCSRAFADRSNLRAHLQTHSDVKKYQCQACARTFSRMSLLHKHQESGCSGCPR
protein,measurement,value
recombinant Akt1 (ProQinase GmbH) (protein) VADGLKKQEEEEMDFRSGSPSDNSGAEEMEVSLAKPKHRVTMNEFEYLKLLGKGTFGKVILVKEKATGRYYAMKILKKEVIVAKDEVAHTLTENRVLQNSRHPFLTALKYSFQTHDRLCFVMEYANGGELFFHLSRERVFSEDRARFYGAEIVSALDYLHSEKNVVYRDLKLENLMLDKDGHIKITDFGLCKEGIKDGATMKTFCGTPEYLAPEVLEDNDYGRAVDWWGLGVVMYEMMCGRLPFYNQDHEKLFELILMEEIRFPRTLGPEAKSLLSGLLKKDPKQRLGGGSEDAKEIMQHRFFAGIVWQHVYEKKLSPPFKPQVTSETDTRYFDEEFTAQMITITPPDQDDSMECVDSERRPHFPQFSYSASGTA,"in vitro kinase assay with 32P-ATP, detected by autoradiography",Akt1 and Akt3 kinases are able to directly phosphorylate Snail protein
